Source: patent US20250304666A1 (ALCHEMAB THERAPEUTICS, published 2025)
Positions count from the first letter of the chain named.

Assays:
reduced CFHR3 [1] = target: T1, reduced CFHR3 (UniProt Q02985 19-330, limits assumed); test: ELISA on reduced CFHR3
T1 sequence (looked up): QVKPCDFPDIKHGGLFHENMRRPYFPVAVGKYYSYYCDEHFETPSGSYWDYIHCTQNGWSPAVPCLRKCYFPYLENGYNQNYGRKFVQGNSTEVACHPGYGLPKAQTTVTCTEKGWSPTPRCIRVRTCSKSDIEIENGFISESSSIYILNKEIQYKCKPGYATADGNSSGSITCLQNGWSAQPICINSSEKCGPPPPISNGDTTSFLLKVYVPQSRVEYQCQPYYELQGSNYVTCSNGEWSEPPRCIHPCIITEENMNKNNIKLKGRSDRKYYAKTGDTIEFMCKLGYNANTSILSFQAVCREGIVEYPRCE

reduced CFHR3 [2] = target: T1, reduced CFHR3; test: ELISA, reduced antigen
reduced CFHR2 = target: T2, reduced CFHR2 (UniProt P36980 19-270, limits assumed); test: ELISA, reduced antigen
T2 sequence (looked up): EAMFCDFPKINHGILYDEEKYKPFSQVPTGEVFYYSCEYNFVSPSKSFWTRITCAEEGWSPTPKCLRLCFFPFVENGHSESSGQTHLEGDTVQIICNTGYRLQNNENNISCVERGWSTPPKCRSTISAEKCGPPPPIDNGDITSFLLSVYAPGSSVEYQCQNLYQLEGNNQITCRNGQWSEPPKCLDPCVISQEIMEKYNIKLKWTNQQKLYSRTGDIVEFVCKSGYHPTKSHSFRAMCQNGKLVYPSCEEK

reduced CFHR5 [3] = target: T3, reduced CFHR5 (UniProt Q9BXR6 19-569, limits assumed); test: ELISA, reduced antigen
T3 sequence (looked up): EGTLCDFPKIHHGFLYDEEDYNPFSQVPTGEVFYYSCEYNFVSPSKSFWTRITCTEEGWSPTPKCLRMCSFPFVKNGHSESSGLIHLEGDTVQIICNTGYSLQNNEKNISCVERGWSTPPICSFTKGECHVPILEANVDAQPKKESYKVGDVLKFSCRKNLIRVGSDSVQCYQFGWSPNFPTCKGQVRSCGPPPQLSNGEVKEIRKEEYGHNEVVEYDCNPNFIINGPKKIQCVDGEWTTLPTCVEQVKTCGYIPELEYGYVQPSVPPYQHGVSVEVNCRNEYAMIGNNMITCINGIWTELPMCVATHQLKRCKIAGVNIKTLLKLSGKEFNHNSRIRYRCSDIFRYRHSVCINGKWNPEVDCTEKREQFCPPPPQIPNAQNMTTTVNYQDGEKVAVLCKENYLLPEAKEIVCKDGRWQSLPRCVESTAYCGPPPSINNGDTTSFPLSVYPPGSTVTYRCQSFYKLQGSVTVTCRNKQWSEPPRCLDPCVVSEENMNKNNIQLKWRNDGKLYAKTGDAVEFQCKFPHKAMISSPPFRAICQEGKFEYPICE

reduced CFHR1 = target: T4, reduced CFHR1 (UniProt Q03591 19-330, limits assumed); test: ELISA, reduced antigen
T4 sequence (looked up): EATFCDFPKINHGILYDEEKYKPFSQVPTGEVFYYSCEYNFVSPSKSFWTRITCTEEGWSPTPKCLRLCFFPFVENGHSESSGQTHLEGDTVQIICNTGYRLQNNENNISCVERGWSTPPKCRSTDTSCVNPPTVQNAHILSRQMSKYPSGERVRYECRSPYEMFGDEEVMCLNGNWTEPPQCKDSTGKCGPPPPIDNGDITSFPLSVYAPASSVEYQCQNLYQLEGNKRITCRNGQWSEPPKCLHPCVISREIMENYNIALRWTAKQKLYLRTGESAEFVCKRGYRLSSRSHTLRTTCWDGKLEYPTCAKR

reduced CFHR5 [4] = target: T3, reduced CFHR5; test: ELISA on reduced CFHR5
non-reduced CFHR2 = target: T5, non-reduced CFHR2; test: ELISA, non-reduced antigen
T5 construct: also called CFHR2 (NON-REDUCED)
T5 chain: T2 sequence (looked up)

non-reduced CFHR5 = target: T6, non-reduced CFHR5; test: ELISA, non-reduced antigen
T6 construct: also called CFHR5 (NON-REDUCED)
T6 chain: T3 sequence (looked up)

non-reduced CFHR4 = target: T7, non-reduced CFHR4; test: ELISA, non-reduced antigen
T7 construct: not reduced; also called CFHR4 (NON-REDUCED)

non-reduced CFHR3 = target: T8, non-reduced CFHR3; test: ELISA, non-reduced antigen
T8 construct: also called CFHR3 (NON-REDUCED)
T8 chain: T1 sequence (looked up)

non-reduced CFHR1 = target: T9, non-reduced CFHR1; test: ELISA, non-reduced antigen
T9 construct: also called CFHR1 (NON-REDUCED)
T9 chain: T4 sequence (looked up)

reduced CFH [5] = target: T10, reduced CFH (Homo sapiens (Human), UniProt P08603 860-1231, limits assumed); test: ELISA on reduced CFH after heating the mAb (70 C, 1 h, as Figure 16)
T10 construct: also called CFH (reduced)
T10 sequence: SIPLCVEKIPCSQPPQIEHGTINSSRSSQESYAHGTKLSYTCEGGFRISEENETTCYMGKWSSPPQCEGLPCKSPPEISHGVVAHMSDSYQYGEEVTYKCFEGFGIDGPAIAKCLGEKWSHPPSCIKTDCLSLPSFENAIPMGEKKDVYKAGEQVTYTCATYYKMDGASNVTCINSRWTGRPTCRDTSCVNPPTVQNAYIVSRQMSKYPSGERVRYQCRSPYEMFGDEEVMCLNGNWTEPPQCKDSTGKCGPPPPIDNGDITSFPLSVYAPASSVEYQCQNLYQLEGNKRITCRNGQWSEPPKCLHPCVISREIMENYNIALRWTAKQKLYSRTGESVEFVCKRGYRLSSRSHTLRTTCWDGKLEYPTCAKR

reduced CFH [6] = target: T10, reduced CFH; test: ELISA, reduced antigen
non-reduced CFH = target: T11, non-reduced CFH; test: ELISA, non-reduced antigen
T11 construct: also called CFH (NON-REDUCED)
T11 chain: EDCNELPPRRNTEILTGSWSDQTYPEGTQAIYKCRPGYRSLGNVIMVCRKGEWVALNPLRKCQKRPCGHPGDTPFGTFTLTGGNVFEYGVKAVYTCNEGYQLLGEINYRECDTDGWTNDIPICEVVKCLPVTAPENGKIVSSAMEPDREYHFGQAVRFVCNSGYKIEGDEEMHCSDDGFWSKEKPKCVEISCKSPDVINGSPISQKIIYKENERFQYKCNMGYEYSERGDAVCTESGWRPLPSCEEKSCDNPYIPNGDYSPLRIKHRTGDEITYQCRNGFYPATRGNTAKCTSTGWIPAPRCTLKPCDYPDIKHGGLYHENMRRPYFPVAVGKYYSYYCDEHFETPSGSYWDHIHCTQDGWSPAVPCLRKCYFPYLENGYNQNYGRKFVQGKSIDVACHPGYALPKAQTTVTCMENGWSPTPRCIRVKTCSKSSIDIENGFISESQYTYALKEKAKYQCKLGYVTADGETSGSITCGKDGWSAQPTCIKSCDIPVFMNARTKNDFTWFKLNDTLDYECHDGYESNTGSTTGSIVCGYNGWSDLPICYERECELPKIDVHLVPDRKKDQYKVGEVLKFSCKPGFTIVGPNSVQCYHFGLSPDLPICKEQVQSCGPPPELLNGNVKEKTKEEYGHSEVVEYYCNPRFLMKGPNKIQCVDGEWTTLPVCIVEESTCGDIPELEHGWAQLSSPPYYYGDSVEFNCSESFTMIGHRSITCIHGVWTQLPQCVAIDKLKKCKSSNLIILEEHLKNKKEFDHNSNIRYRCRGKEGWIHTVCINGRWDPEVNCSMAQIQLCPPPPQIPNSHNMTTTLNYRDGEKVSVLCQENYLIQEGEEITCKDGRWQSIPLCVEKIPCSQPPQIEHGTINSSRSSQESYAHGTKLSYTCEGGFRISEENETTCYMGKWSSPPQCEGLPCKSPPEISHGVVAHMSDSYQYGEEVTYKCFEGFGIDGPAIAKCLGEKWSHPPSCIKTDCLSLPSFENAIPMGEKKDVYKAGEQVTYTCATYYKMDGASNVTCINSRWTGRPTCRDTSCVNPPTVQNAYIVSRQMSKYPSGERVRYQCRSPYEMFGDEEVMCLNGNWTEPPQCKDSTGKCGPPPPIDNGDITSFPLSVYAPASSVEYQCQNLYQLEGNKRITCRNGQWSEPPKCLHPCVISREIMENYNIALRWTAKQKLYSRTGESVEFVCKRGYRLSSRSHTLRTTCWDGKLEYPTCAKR

reduced CFHR5 [7] = target: T3, reduced CFHR5; test: phage ELISA on reduced CFHR5 [B]

B1: ATL_0005155 (antibody, human IgG1, kappa, V domains shown)
VH: QVQLVESGGGVVQPGRSLRLSCAASGFTFSNYGMHWVRQAPGKGLEWVAVTSFDGKTKYYADSVKGRFTISRDNSKNTLYLQMNSLRAEDTAVYYCAKGGATAAVFDSWGQGTLVTVSS
VL: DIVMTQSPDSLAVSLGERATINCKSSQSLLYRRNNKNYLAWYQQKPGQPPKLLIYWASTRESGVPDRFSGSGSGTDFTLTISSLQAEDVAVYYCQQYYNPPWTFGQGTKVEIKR
notes: one of the 10 lead mAbs; IgG1; also called ATL5155; ATL_0005155-001
- binding result (reduced CFHR3 [1]): no binding (tested: 100 ug/ml)
- fold change vs isotype at 1 ug/ml (reduced CFHR3 [2]): 1 fold
- fold change vs isotype at 1 ug/ml (reduced CFHR2): 11.3 fold
- fold change vs isotype at 1 ug/ml (reduced CFHR5 [3]): 1 fold
- fold change vs isotype at 1 ug/ml (reduced CFHR1): 23 fold
- binding result (reduced CFHR5 [4]): no binding (tested: 100 ug/ml)
- fold change vs isotype at 1 ug/ml (non-reduced CFHR2): 7 fold
- binding result (non-reduced CFHR5): no binding (tested: 1 ug/ml)
- fold change vs isotype at 1 ug/ml (non-reduced CFHR5): 1 fold
- fold change vs isotype at 1 ug/ml (non-reduced CFHR4): 1 fold
- binding result (non-reduced CFHR3): no binding (tested: 1 ug/ml)
- fold change vs isotype at 1 ug/ml (non-reduced CFHR3): 1 fold
- fold change vs isotype at 1 ug/ml (non-reduced CFHR1): 13 fold

B2: ATL_0004894 (antibody, human IgG1, kappa, V domains shown)
VH: B1 VH with N31I, T51M
VL: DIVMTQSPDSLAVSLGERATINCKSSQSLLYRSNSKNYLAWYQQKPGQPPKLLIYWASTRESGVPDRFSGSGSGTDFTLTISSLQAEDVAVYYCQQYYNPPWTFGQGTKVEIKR
notes: germlined ATL4717, IgG1; also called ATL4894; 4894 IgG
- Harsh Heat challenge ELISA value (reduced CFH [5]): 0.58
- fold change vs isotype at 1 ug/ml (reduced CFHR3 [2]): 1 fold
- fold change vs isotype at 1 ug/ml (reduced CFH [6]): 18.4 fold
- fold change vs isotype at 1 ug/ml (reduced CFHR2): 10.3 fold
- fold change vs isotype at 1 ug/ml (reduced CFHR5 [3]): 1 fold
- fold change vs isotype at 1 ug/ml (reduced CFHR1): 24.4 fold
- fold change vs isotype at 1 ug/ml (non-reduced CFHR2): 7.7 fold
- fold change vs isotype at 1 ug/ml (non-reduced CFHR5): 0.9 fold
- fold change vs isotype at 1 ug/ml (non-reduced CFH): 9.8 fold
- fold change vs isotype at 1 ug/ml (non-reduced CFHR3): 1 fold
- fold change vs isotype at 1 ug/ml (non-reduced CFHR1): 16.6 fold

B3: ATL_0004715 (antibody, human IgG1, kappa, V domains shown)
VH: EVQLVESGGGVVQPGRSLRLSCAASGFTFSRYGMHWVRQAPGKGLEWVAVMSYDGSTKYYADSVKGRFAISRDNPKNTLFLQMNSLRPDDTAVYYCAKGGAAAAVMDVWGKGTTVTVSS
VL: DIVMTQSPDSLTVSLGERATISCKSSQRLLYSSNNKNYLAWYQQKPGQPPKLLMYWASTRESGVPDRFSGSGSGTDFSLTISSLQAEDVAVYYCQQYYNPPWTFGQGTKVEVKR
notes: also called ATL4715
- Harsh Heat challenge ELISA value (reduced CFH [5]): 0.09
- binding result (reduced CFHR3 [2]): no binding (tested: 1 ug/ml)
- fold change vs isotype at 1 ug/ml (reduced CFHR3 [2]): 0.9 fold
- fold change vs isotype at 1 ug/ml (reduced CFH [6]): 17.2 fold
- fold change vs isotype at 1 ug/ml (reduced CFHR2): 9.9 fold
- binding result (reduced CFHR5 [3]): no binding (tested: 1 ug/ml)
- fold change vs isotype at 1 ug/ml (reduced CFHR5 [3]): 1 fold
- fold change vs isotype at 1 ug/ml (reduced CFHR1): 22.9 fold
- fold change vs isotype at 1 ug/ml (non-reduced CFHR2): 3.9 fold
- binding result (non-reduced CFHR5): no binding (tested: 1 ug/ml)
- fold change vs isotype at 1 ug/ml (non-reduced CFHR5): 0.9 fold
- fold change vs isotype at 1 ug/ml (non-reduced CFH): 10 fold
- fold change vs isotype at 1 ug/ml (non-reduced CFHR4): 0.9 fold
- binding result (non-reduced CFHR3): no binding (tested: 1 ug/ml)
- fold change vs isotype at 1 ug/ml (non-reduced CFHR3): 1 fold
- fold change vs isotype at 1 ug/ml (non-reduced CFHR1): 10.1 fold

B4: 4894 phage (scFv)
scFv displayed on phage: QVQLVESGGGVVQPGRSLRLSCAASGFTFSIYGMHWVRQAPGKGLEWVAVMSFDGKTKYYADSVKGRFTISRDNSKNTLYLQMNSLRAEDTAVYYCAKGGATAAVFDSWGQGTLVTVSGGGGSGGGGSGGGGSDIVMTQSPDSLAVSLGERATINCKSSQSLLYRSNNKNYLAWYQQKPGQPPKLLIYWASTRESGVPDRFSGSGSGTDFTLTISSLQAEDVAVYYCQQYYNPPWTFGQGTKVEIK
notes: also called phage displaying the ATL4894 scFv
- binding result (reduced CFHR5 [7]): no binding
